In the MegaScale stability set (Tsuboyama et al. 2023):

B1: EEHEE_rd4_0003 (parent)
chain: KKVTINGVEIKFNNPEEAVKFALELAKRLNLRIEFHGDQIKIE

Variants of: B1
Experiment: folding stability dG (cDNA display proteolysis); higher = more stable
Conditions: PBS, room temperature

| Variant | folding stability dG |
| --- | --- |
| KKVTINGVEIKFNNPEEAVKFALELALRLNLRIEFHGDQIKIE | 2.62 kcal/mol |
| KKVTINGVEIKFNNPEEAVKFALELACRLNLRIEFHGDQIKIE | 3.23 kcal/mol |
| KKVTINGVEIKFNNPEEAVKFALELAIRLNLRIEFHGDQIKIE | 2.4 kcal/mol |
| KKVTINGVEIKFNNPEEAVKFALELAGRLNLRIEFHGDQIKIE | 2.39 kcal/mol |
| KKVTINGVEIKFNNPEEAVKFALELAQRLNLRIEFHGDQIKIE | 2.47 kcal/mol |
| KKVTINGVEIKFNNPEEAVKFALELAWRLNLRIEFHGDQIKIE | 2.47 kcal/mol |
| KKVTINGVEIKFNNPEEAVKFALELAYRLNLRIEFHGDQIKIE | 2.44 kcal/mol |
| KKVTINGVEIKFNNPEEAVKFALELADRLNLRIEFHGDQIKIE | 2.03 kcal/mol |
| KKVTINGVEIKFNNPEEAVKFALELANRLNLRIEFHGDQIKIE | 2.32 kcal/mol |
| KKVTINGVEIKFNNPEEAVKFALELAVRLNLRIEFHGDQIKIE | 2.24 kcal/mol |
| KKVTINGVEIKFNNPEEAVKFALELAPRLNLRIEFHGDQIKIE | 1.37 kcal/mol |
| KKVTINGVEIKFNNPEEAVKFALELAERLNLRIEFHGDQIKIE | 2.38 kcal/mol |
| KKVTINGVEIKFNNPEEAVKFALELATRLNLRIEFHGDQIKIE | 2.52 kcal/mol |
| KKVTINGVEIKFNNPEEAVKFALELASRLNLRIEFHGDQIKIE | 2.52 kcal/mol |
| KKVTINGVEIKFNNPEEAVKFALELAMRLNLRIEFHGDQIKIE | 2.57 kcal/mol |
| KKVTINGVEIKFNNPEEAVKFALELAFRLNLRIEFHGDQIKIE | 2.63 kcal/mol |
| KKVTINGVEIKFNNPEEAVKFALELAARLNLRIEFHGDQIKIE | 2.72 kcal/mol |
| KKVTINGVEIKFNNPEEAVKFALELAHRLNLRIEFHGDQIKIE | 2.48 kcal/mol |
| KKVTINGVEIKFNNPEEAVKFALELARRLNLRIEFHGDQIKIE | 2.79 kcal/mol |
| KKVTINGVEIKFNNPEEAVKFALELAKRLNDRIEFHGDQIKIE | 0.559 kcal/mol |
| KKVTINGVEIKFNNPEEAVKFALELAKRLNARIEFHGDQIKIE | 2.72 kcal/mol |
| KKVTINGVEIKFNNPEEAVKFALELAKRLNCRIEFHGDQIKIE | 2.84 kcal/mol |
| KKVTINGVEIKFNNPEEAVKFALYLAKRLNLRIEFHGDQIKIE | 2.73 kcal/mol |
| KKVTINGVEIKFNNPEEAVKFALELAKRGNLRIEFHGDQIKIE | 1.88 kcal/mol |

| Variant | folding stability dG |
| --- | --- |
| KKVTINGVEIKFNNPEEAVKFALELAKRQNLRIEFHGDQIKIE | 1.73 kcal/mol |
| KKVTINGVEIKFNNPEEAVKFALELAKRVNLRIEFHGDQIKIE | 1.77 kcal/mol |
| KKVTINGVEIKFNNPEEAVKFALELAKRFNLRIEFHGDQIKIE | 2.65 kcal/mol |
| KKVTINGVEIKFNNPEEAVKFALELAKRPNLRIEFHGDQIKIE | 1.52 kcal/mol |
| KKVTINGVEIKFNNPEEAVKFALELAKRKNLRIEFHGDQIKIE | 1.6 kcal/mol |
| KKVTINGVEIKFNNPEEAVKFALELAKRANLRIEFHGDQIKIE | 1.74 kcal/mol |
| KKVTINGVEIKFNNPEEAVKFALELAKRHNLRIEFHGDQIKIE | 2.21 kcal/mol |
| KKVTINGVEIKFNNPEEAVKFALELAKRSNLRIEFHGDQIKIE | 1.55 kcal/mol |
| KKVTINGVEIKFNNPEEAVKFALELAKRRNLRIEFHGDQIKIE | 1.43 kcal/mol |
| KKVTINGVEIKFNNPEEAVKFALELAKRNNLRIEFHGDQIKIE | 1.72 kcal/mol |
| KKVTINGVEIKFNNPEEAVKFALELAKRWNLRIEFHGDQIKIE | 2.43 kcal/mol |
| KKVTINGVEIKFNNPEEAVKFALELAKRCNLRIEFHGDQIKIE | 3.71 kcal/mol |
| KKVTINGVEIKFNNPEEAVKFALELAKRDNLRIEFHGDQIKIE | 1.29 kcal/mol |
| KKVTINGVEIKFNNPEEAVKFALELAKRYNLRIEFHGDQIKIE | 2.67 kcal/mol |
| KKVTINGVEIKFNNPEEAVKFALELAKRINLRIEFHGDQIKIE | 1.9 kcal/mol |
| KKVTINGVEIKFNNPEEAVKFALELAKRENLRIEFHGDQIKIE | 1.66 kcal/mol |
| KKVTINGVEIKFNNPEEAVKFALELAKRMNLRIEFHGDQIKIE | 2.38 kcal/mol |
| KKVTINGVEIKFNNPEEAVKFALELAKRTNLRIEFHGDQIKIE | 1.61 kcal/mol |
| KKVTINGVEIKFNNPEEAVKFALELVKRLNLRIEFHGDQIKIE | 2.26 kcal/mol |
| KKVTINGVEIKFNNPEEAVKFALELQKRLNLRIEFHGDQIKIE | 1.78 kcal/mol |
| KKVTINGVEIKFNNPEEAVKFALELIKRLNLRIEFHGDQIKIE | 2.3 kcal/mol |
| KKVTINGVEIKFNNPEEAVKFALELSKRLNLRIEFHGDQIKIE | 2.23 kcal/mol |
| KKVTINGVEIKFNNPEEAVKFALELGKRLNLRIEFHGDQIKIE | 1.91 kcal/mol |
| KKVTINGVEIKFNNPEEAVKFALELDKRLNLRIEFHGDQIKIE | 0.982 kcal/mol |

| Variant | folding stability dG |
| --- | --- |
| KKVTINGVEIKFNNPEEAVKFALELTKRLNLRIEFHGDQIKIE | 1.92 kcal/mol |
| KKVTINGVEIKFNNPEEAVKFALELYKRLNLRIEFHGDQIKIE | 2.29 kcal/mol |
| KKVTINGVEIKFNNPEEAVKFALELRKRLNLRIEFHGDQIKIE | 1.73 kcal/mol |
| KKVTINGVEIKFNNPEEAVKFALELHKRLNLRIEFHGDQIKIE | 1.47 kcal/mol |
| KKVTINGVEIKFNNPEEAVKFALELEKRLNLRIEFHGDQIKIE | 1.33 kcal/mol |
| KKVTINGVEIKFNNPEEAVKFALELMKRLNLRIEFHGDQIKIE | 2.37 kcal/mol |
| KKVTINGVEIKFNNPEEAVKFALELWKRLNLRIEFHGDQIKIE | 2.14 kcal/mol |
| KKVTINGVEIKFNNPEEAVKFALELKKRLNLRIEFHGDQIKIE | 1.66 kcal/mol |
| KKVTINGVEIKFNNPEEAVKFALELCKRLNLRIEFHGDQIKIE | 2.98 kcal/mol |
| KKVTINGVEIKFNNPEEAVKFALELFKRLNLRIEFHGDQIKIE | 2.56 kcal/mol |
| KKVTINGVEIKFNNPEEAVKFALELLKRLNLRIEFHGDQIKIE | 2.52 kcal/mol |
| KKVTINGVEIKFNNPEEAVKFALELPKRLNLRIEFHGDQIKIE | 1.19 kcal/mol |
| KKVTINGVEIKFNNPEEAVKFALELNKRLNLRIEFHGDQIKIE | 1.43 kcal/mol |
| KKVTINGVEIKFNNPEEAVKFALELAKRLSLRIEFHGDQIKIE | 2.2 kcal/mol |
| KKVTINGVEIKFNNPEEAVKFALELAKRLRLRIEFHGDQIKIE | 2.61 kcal/mol |
| KKVTINGVEIKFNNPEEAVKFALELAKRLHLRIEFHGDQIKIE | 2.47 kcal/mol |
| KKVTINGVEIKFNNPEEAVKFALELAKRLVLRIEFHGDQIKIE | 2.29 kcal/mol |
| KKVTINGVEIKFNNPEEAVKFALELAKRLALRIEFHGDQIKIE | 2.23 kcal/mol |
| KKVTINGVEIKFNNPEEAVKFALELAKRLGLRIEFHGDQIKIE | 2.65 kcal/mol |
| KKVTINGVEIKFNNPEEAVKFALELAKRLELRIEFHGDQIKIE | 1.86 kcal/mol |
| KKVTINGVEIKFNNPEEAVKFALELAKRLDLRIEFHGDQIKIE | 1.9 kcal/mol |
| KKVTINGVEIKFNNPEEAVKFALELAKRLPLRIEFHGDQIKIE | 1.82 kcal/mol |
| KKVTINGVEIKFNNPEEAVKFALELAKRLFLRIEFHGDQIKIE | 2.55 kcal/mol |
| KKVTINGVEIKFNNPEEAVKFALELAKRLILRIEFHGDQIKIE | 2.34 kcal/mol |

| Variant | folding stability dG |
| --- | --- |
| KKVTINGVEIKFNNPEEAVKFALELAKRLYLRIEFHGDQIKIE | 2.42 kcal/mol |
| KKVTINGVEIKFNNPEEAVKFALELAKRLKLRIEFHGDQIKIE | 2.55 kcal/mol |
| KKVTINGVEIKFNNPEEAVKFALELAKRLWLRIEFHGDQIKIE | 2.72 kcal/mol |
| KKVTINGVEIKFNNPEEAVKFALELAKRLQLRIEFHGDQIKIE | 2.38 kcal/mol |
| KKVTINGVEIKFNNPEEAVKFALELAKRLLLRIEFHGDQIKIE | 2.51 kcal/mol |
| KKVTINGVEIKFNNPEEAVKFALELAKRLMLRIEFHGDQIKIE | 2.43 kcal/mol |
| KKVTINGVEIKFNNPEEAVKFALELAKRLTLRIEFHGDQIKIE | 2.12 kcal/mol |
| KKVTINGVEIKFNNPEEAVKFALELAKRLCLRIEFHGDQIKIE | 3.46 kcal/mol |
| KKVTINGVEIKFNNPEEAVKFALELAKSLNLRIEFHGDQIKIE | 2.35 kcal/mol |
| KKVTINGVEIKFNNPEEAVKFALELAKELNLRIEFHGDQIKIE | 2.08 kcal/mol |
| KKVTINGVEIKFNNPEEAVKFALELAKLLNLRIEFHGDQIKIE | 2.57 kcal/mol |
| KKVTINGVEIKFNNPEEAVKFALELAKWLNLRIEFHGDQIKIE | 2.68 kcal/mol |
| KKVTINGVEIKFNNPEEAVKFALELAKFLNLRIEFHGDQIKIE | 2.5 kcal/mol |
| KKVTINGVEIKFNNPEEAVKFALELAKTLNLRIEFHGDQIKIE | 2.2 kcal/mol |
| KKVTINGVEIKFNNPEEAVKFALELAKNLNLRIEFHGDQIKIE | 1.99 kcal/mol |
| KKVTINGVEIKFNNPEEAVKFALELAKILNLRIEFHGDQIKIE | 2.54 kcal/mol |
| KKVTINGVEIKFNNPEEAVKFALELAKHLNLRIEFHGDQIKIE | 2.22 kcal/mol |
| KKVTINGVEIKFNNPEEAVKFALELAKYLNLRIEFHGDQIKIE | 2.63 kcal/mol |
| KKVTINGVEIKFNNPEEAVKFALELAKQLNLRIEFHGDQIKIE | 2.21 kcal/mol |
| KKVTINGVEIKFNNPEEAVKFALELAKALNLRIEFHGDQIKIE | 2.39 kcal/mol |
| KKVTINGVEIKFNNPEEAVKFALELAKVLNLRIEFHGDQIKIE | 2.36 kcal/mol |
| KKVTINGVEIKFNNPEEAVKFALELAKKLNLRIEFHGDQIKIE | 2.33 kcal/mol |
| KKVTINGVEIKFNNPEEAVKFALELAKCLNLRIEFHGDQIKIE | 3.28 kcal/mol |
| KKVTINGVEIKFNNPEEAVKFALELAKGLNLRIEFHGDQIKIE | 1.91 kcal/mol |

| Variant | folding stability dG |
| --- | --- |
| KKVTINGVEIKFNNPEEAVKFALELAKDLNLRIEFHGDQIKIE | 1.69 kcal/mol |
| KKVTINGVEIKFNNPEEAVKFALELAKMLNLRIEFHGDQIKIE | 2.5 kcal/mol |
| KKVTINGVEIKFNNPEEAVKFALELAKPLNLRIEFHGDQIKIE | 1.29 kcal/mol |
| KKVTINGVEIKFNNPEEAVKFALERAKRLNLRIEFHGDQIKIE | 0.955 kcal/mol |
| KKVTINGVEIKFNNPEEAVKFALEVAKRLNLRIEFHGDQIKIE | 2.24 kcal/mol |
| KKVTINGVEIKFNNPEEAVKFALEWAKRLNLRIEFHGDQIKIE | 2.53 kcal/mol |
| KKVTINGVEIKFNNPEEAVKFALESAKRLNLRIEFHGDQIKIE | 1.11 kcal/mol |
| KKVTINGVEIKFNNPEEAVKFALEKAKRLNLRIEFHGDQIKIE | 0.98 kcal/mol |
| KKVTINGVEIKFNNPEEAVKFALEHAKRLNLRIEFHGDQIKIE | 1.48 kcal/mol |
| KKVTINGVEIKFNNPEEAVKFALETAKRLNLRIEFHGDQIKIE | 1.7 kcal/mol |
| KKVTINGVEIKFNNPEEAVKFALEPAKRLNLRIEFHGDQIKIE | -0.052 kcal/mol |
| KKVTINGVEIKFNNPEEAVKFALEYAKRLNLRIEFHGDQIKIE | 2.72 kcal/mol |
| KKVTINGVEIKFNNPEEAVKFALEGAKRLNLRIEFHGDQIKIE | 0.776 kcal/mol |
| KKVTINGVEIKFNNPEEAVKFALEMAKRLNLRIEFHGDQIKIE | 2.46 kcal/mol |
| KKVTINGVEIKFNNPEEAVKFALEQAKRLNLRIEFHGDQIKIE | 1.62 kcal/mol |
| KKVTINGVEIKFNNPEEAVKFALEAAKRLNLRIEFHGDQIKIE | 1.9 kcal/mol |
| KKVTINGVEIKFNNPEEAVKFALEFAKRLNLRIEFHGDQIKIE | 2.44 kcal/mol |
| KKVTINGVEIKFNNPEEAVKFALECAKRLNLRIEFHGDQIKIE | 2.82 kcal/mol |
| KKVTINGVEIKFNNPEEAVKFALENAKRLNLRIEFHGDQIKIE | 1.32 kcal/mol |
| KKVTINGVEIKFNNPEEAVKFALEDAKRLNLRIEFHGDQIKIE | 0.443 kcal/mol |
| KKVTINGVEIKFNNPEEAVKFALEEAKRLNLRIEFHGDQIKIE | 1.56 kcal/mol |
| KKVTINGVEIKFNNPEEAVKFALEIAKRLNLRIEFHGDQIKIE | 2.53 kcal/mol |
